The text below walks through data of article doi:10.1101/506113 (bioRxiv, 2018).

The assay deals with LgB-NIX (NIX with Large BiT at its N-terminal end) (UniProt O60238 1-219). Briefly: split reporter.
Sequence of LgB-NIX (NIX with Large BiT at its N-terminal end) (O60238 whole entry): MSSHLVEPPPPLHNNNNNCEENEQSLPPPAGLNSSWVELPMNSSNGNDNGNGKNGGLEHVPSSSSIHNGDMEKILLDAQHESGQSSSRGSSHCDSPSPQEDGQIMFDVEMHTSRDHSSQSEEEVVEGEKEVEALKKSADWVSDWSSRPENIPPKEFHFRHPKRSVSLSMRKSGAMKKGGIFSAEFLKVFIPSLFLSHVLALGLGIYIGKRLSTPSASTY

B1: vIRF-1-SmB (vIRF-1 with Small BiT at its C-terminal end) (natural protein)
chain: MDPGQRPNPFGAPGAIPKKPCLSQGSPGTSGSGAPCDEPSRSESPGEGPSGTGGSAAAGDITRQAVVAAITEWSRTRQLRISTGASEGKASIKDWIVCQVNSGKFPGVEWEDEERTRFRIPVTPLADPCFEWRRDGELGVVYIRERGNMPVDASFKGTRGRRRMLAALRRTRGLQEIGKGISQDGHHFLVFRVRKPEEEQCVECGVVAGAVHDFNNMARLLQEGFFSPGQCLPGEIVTPVPSCTTAEGQEAVIDWGRLFIRMYYNGEQVHELLTTSQSGCRISSALRRDPAVHYCAVGSPGQVWLPNVPNLACEIAKRELCDTLDACAKGILLTSSCNGIFCVCYHNGPVHFIGNTVPPDSGPLLLPQGKPTRIFNPNTFLVGLANSPLPAPSHVTCPLVKLWLGKPVAVGKLEPHAPSPRDFAARCSNFSDACVVLEIMPKPLWDAMQ
Turning to B1, the “fold luminescence over HT-SmB with LgB-NIX” value turned out to be 10 fold.
